Earlier results on four substances are cited in paper PMC5342242.

What is called Kd is a measure of binding affinity in units of concentration.

Where two headings read alike, the source gives them in different places.

Data set [1] addresses DNA polymerase III α subunit (Escherichia coli) (UniProt P10443). Kind of data set: tryptophan fluorescence.
Data set [2] concerns the target DNA polymerase III α subunit 1-280 (Escherichia coli) (UniProt P10443). Briefly: tryptophan fluorescence.
Data set [3] addresses DNA polymerase III α subunit 917-1160 (Escherichia coli) (UniProt P10443). Kind of data set: tryptophan fluorescence.
The target in data set [4] is DNA pol III alpha (Escherichia coli) (UniProt P10443).
The target of data set [5] is DNA pol III alpha 1-280 (Escherichia coli) (UniProt P10443).
The target of data set [6] is DNA pol III alpha 917-1160 (Escherichia coli) (UniProt P10443).
For data set [7] the target is unchanged. The source holds these as a separate data set.

DNA polymerase III α subunit 1-280 (Escherichia coli), sequence (P10443 1-280): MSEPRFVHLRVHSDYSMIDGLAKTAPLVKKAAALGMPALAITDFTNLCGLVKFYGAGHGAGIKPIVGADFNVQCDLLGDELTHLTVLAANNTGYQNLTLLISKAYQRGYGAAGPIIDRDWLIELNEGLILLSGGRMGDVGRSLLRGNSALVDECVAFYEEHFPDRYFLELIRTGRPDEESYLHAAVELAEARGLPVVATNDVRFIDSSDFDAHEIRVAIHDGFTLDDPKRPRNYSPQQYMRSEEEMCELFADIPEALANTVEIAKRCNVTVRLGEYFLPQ
DNA polymerase III α subunit (Escherichia coli), sequence (P10443 whole entry): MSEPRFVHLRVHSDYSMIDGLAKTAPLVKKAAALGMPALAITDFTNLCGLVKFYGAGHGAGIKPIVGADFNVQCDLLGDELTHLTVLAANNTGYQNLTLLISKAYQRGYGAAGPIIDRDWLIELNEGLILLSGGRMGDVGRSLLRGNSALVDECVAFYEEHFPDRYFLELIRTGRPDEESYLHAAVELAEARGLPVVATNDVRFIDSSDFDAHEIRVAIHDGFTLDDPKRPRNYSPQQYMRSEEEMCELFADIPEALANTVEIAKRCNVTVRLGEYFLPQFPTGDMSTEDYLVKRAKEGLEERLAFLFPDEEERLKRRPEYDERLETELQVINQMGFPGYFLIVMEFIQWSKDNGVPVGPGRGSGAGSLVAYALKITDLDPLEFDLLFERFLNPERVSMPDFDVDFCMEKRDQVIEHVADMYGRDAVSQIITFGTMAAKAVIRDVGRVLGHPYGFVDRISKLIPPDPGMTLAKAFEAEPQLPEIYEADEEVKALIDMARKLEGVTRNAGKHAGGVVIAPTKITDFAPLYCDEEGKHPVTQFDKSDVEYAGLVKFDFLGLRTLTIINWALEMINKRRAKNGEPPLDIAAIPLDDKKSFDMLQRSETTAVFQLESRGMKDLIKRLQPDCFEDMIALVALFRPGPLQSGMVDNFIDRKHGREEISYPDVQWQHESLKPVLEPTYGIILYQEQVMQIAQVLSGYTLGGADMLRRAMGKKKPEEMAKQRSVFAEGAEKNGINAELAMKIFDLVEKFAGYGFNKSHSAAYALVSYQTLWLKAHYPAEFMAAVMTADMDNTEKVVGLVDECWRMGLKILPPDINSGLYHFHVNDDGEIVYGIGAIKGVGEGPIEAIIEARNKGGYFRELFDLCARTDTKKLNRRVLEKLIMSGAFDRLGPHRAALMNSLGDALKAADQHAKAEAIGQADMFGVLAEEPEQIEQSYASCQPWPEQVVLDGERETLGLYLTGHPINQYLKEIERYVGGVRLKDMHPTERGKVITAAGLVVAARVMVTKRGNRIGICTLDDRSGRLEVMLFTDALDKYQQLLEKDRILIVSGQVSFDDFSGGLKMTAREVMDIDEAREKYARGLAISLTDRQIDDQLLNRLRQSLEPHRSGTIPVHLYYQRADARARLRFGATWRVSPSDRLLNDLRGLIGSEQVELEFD
DNA polymerase III α subunit 917-1160 (Escherichia coli), sequence (P10443 917-1160): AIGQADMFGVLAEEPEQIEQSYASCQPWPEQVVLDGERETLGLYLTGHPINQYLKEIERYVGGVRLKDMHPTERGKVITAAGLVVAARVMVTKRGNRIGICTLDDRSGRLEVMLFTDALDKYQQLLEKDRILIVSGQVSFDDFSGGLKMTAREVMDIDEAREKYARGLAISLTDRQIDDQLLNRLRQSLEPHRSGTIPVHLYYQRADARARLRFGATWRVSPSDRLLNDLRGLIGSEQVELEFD
UmuD, sequence (P0AG11 25-139): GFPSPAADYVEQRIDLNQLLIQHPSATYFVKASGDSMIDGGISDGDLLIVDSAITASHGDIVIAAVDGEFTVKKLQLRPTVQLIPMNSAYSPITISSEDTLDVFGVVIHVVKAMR
UmuD', sequence (P0AG11 25-139): as above
DNA pol III alpha 917-1160 (Escherichia coli), sequence (P10443 917-1160): as the sequence (P10443 917-1160) above
DNA pol III alpha 1-280 (Escherichia coli), sequence (P10443 1-280): as the sequence (P10443 1-280) above
DNA pol III alpha (Escherichia coli), sequence (P10443 whole entry): as the sequence (P10443 whole entry) above

As for UmuD S60A (from UniProt P0AG11), the Kd in data set [1] was 10.6 µM; in data set [2] it was 10.3 µM; in data set [3] it was 0.7 µM.

UmuD' (from UniProt P0AG11): the Kd in data set [4] was 10.9 µM; in data set [5], 8.6 µM; in data set [6] it was 3.8 µM.

For UmuD (from UniProt P0AG11), the Kd is 0.7 µM in data set [7], 1.1 µM in data set [1], 7.3 µM in data set [2] and 13.9 µM in data set [3].

On to UmuD 3A (from UniProt P0AG11), for which the Kd in data set [1] was 8.7 µM; in data set [2] it was 9.3 µM; in data set [3] it was 3.4 µM.
